Measured values as given in publication PMC5733061.
pKd: −log10 of the molar value.

What was measured:
[1] = tested on: EcFadR (Escherichia coli); test: SPR; conditions: SPR: 20 mM Tris-HCl pH 7.5, 200 mM NaCl, 0.005% Tween 20, 25 C, protein 31.25-1000 nM; EMSA: binding buffer composition not given, room temperature, 5 pmol …
[2] = tested on: ValFadR (Vibrio alginolyticus); test: SPR; conditions: SPR: 20 mM Tris-HCl pH 7.5, 200 mM NaCl, 0.005% Tween 20, 25 C, protein 31.25-1000 nM; EMSA: binding buffer composition not given, room temperature, 5 pmol …

## fabA probe (SPR)
[1]
  pKd: 6.25
[2]
  pKd: 6.59
